Source: publication PMC9618040, “Cryo-EM structures of light-harvesting 2 complexes from Rhodopseudomonas palustris reveal the molecular origin of absorption tuning” (Proceedings of the National Academy of Sciences of the …, 2022)
Each block holds one molecule with its values, some of them ahead of it.

Legend:
[1] = target: PucD-LH2 α-polypeptide (α-apoprotein encoded by the pucBAd gene pair) (Rhodopseudomonas palustris); test: cryo-EM structure; single-particle cryo-EM of native LH2 complexes purified from intracytoplasmic membranes of single-pucBA deletion strains, in 0.1% LDAO, 20 mM Tris-Cl pH 8.0; C1 maps with relaxed C9 symmetry; γ encloses six of the nine α/β-heterodimers
[2] = target: PucA-LH2 α-polypeptide (α-apoprotein encoded by the pucBAa gene pair) (Rhodopseudomonas palustris); test: as above
[3] = target: PucE-LH2 α-polypeptide (α-apoprotein encoded by the pucBAe gene pair) (Rhodopseudomonas palustris); test: as above
[4] = target: T1, PucA-LH2 (Rhodopseudomonas palustris, UniProt P35101+P35106+Q6N9P5); test: cryo-EM structure of the complex, […] Å; assay type: binding; conditions: 9 per complex, between alpha and beta chains; noncovalent
T1 construct: gene pucAA; native nonameric LH2 complex purified in LDAO from a Rps. palustris mutant with only pucBAa; α9β9γ1; alpha Met1 modelled as Cxm; last nine alpha residues untraced

[5] = target: PucB-LH2 α-polypeptide (α-apoprotein encoded by the pucBAb gene pair) (Rhodopseudomonas palustris); test: cryo-EM structure; single-particle cryo-EM of native LH2 complexes purified from intracytoplasmic membranes of single-pucBA deletion strains, in 0.1% LDAO, 20 mM Tris-Cl pH 8.0; C1 maps with relaxed C9 symmetry; γ encloses six of the nine α/β-heterodimers

T1 sequence (P35101 whole entry): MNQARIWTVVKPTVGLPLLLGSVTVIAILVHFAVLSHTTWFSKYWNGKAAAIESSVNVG
T1 sequence (P35106 2-47 limits assumed): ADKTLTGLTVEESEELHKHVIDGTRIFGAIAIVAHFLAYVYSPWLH
T1 sequence (Q6N9P5 1-97): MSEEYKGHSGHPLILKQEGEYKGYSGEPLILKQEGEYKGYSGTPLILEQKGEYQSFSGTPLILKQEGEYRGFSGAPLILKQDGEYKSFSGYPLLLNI

- stoichiometry N [1]: 9
Molecule: PucD-LH2 α-polypeptide (α-apoprotein encoded by the pucBAd gene pair) (natural protein)

- stoichiometry N [5]: 9
Molecule: PucB-LH2 α-polypeptide (α-apoprotein encoded by the pucBAb gene pair) (natural protein)

Further lines, the molecule ahead of its results:

Molecule: PucA-LH2 α-polypeptide (α-apoprotein encoded by the pucBAa gene pair) (natural protein)
- stoichiometry N [2]: 9

Molecule: PucE-LH2 α-polypeptide (α-apoprotein encoded by the pucBAe gene pair) (natural protein)
- stoichiometry N [3]: 9

Molecule: CC(C)=CCC/C(C)=C/C=C/C(C)=C/C=C/C(C)=C/C=C/C=C(C)/C=C/C=C(C)/C=C/C=C(\C)CCCC(C)(C)O [rhodopin]
- cryo-EM structure of the complex, 2.7 Å [4]: A carotenoid, rhodopin, is sandwiched between α- and β-polypeptides
